Assay [1] addresses Glycine receptor β subunit (native heteromeric GlyR, 4α:1β) (Sus scrofa, UniProt A0A4X1TUM3+Q6KBX4). Kind of assay: cryo-EM structure. The format is binding.
Assay [2] deals with recombinant pig GlyR α1 subunit without fluorophore (pig). Description: cryo-EM structure.
Assay [3] deals with T1, recombinant pig GlyR α1 subunit tagged with YFP (pig).
T1 chain: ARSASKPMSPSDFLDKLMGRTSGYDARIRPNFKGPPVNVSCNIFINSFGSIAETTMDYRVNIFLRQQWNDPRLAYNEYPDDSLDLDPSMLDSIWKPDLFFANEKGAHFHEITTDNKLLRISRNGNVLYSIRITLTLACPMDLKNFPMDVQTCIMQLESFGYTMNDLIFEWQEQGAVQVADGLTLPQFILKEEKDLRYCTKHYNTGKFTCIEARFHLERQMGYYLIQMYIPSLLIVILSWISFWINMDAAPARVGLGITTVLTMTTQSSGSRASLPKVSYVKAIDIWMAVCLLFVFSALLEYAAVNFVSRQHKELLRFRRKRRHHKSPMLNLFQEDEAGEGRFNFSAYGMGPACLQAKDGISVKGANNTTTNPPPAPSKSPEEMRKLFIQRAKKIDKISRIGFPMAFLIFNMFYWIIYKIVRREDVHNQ
Description: SEC. (SEC sorts molecules by how far they enter the pores of the column.)

In assay [4] the target is T2, recombinant pig GlyR α1 subunit without fluorophore (pig).
T2 chain: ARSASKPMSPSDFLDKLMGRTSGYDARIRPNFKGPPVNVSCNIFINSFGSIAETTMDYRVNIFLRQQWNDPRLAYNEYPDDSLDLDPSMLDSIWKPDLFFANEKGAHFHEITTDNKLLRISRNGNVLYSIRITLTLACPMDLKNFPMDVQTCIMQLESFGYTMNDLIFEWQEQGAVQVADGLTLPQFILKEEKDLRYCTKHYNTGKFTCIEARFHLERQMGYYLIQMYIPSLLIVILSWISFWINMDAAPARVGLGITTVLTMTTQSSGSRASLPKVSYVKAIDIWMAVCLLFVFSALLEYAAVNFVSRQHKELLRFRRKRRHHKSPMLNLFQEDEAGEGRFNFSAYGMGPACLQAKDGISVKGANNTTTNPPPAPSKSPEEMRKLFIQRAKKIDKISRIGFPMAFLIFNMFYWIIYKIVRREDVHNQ
Kind of assay: cryo-EM structure.

As for `NCC(=O)O` [glycine], in assay [1], the “cryo-EM structure (2.7 Å)” value is “formed between the hydroxyl moiety of βY231 and the carboxyl group of glycine”. As for “recombinant pig GlyR β subunit without fluorophore (receptor)”, the stoichiometry N (α subunits per β subunit) in assay [2] came out at 4.

B1: anti-GlyR α 3D1 Fab (Fab, V domains shown)
VH: QVQLQQSGAELMKPGAAVKISCKATGHTISRYWIDWLKQRPGHGLEWIGEILPGSGSTNYNEKFKGKATFTAEKSSNTAYMQLSSLTSEDSAVYYCAMGVRGNYFDYWGQGTTLTVSS
VL: DIVMTQSHKFMSTSVGDRVSITCKASQDVSTAVAWYQQKPGQSPKLLIYWASTRHTGVPGRFTGSGSGTDYTLTISSVQAEDLSLYYCQQHYSTPRTFGGGTKLEIK
As to B1, the binding result in assay [3] and in assay [4] was “binds” in each case.

For the origin of these results see paper PMC8647860 (Nature, 2021).
